Patent publication US20230212304A1 (BIOSION, published 2023)
Where two headings read alike, the source gives them in different places. Values belong to the binder of their own block, whether it stands above or below them.

Columns and labels:
[1] = biological target: T1, recombinant human CTLA4 protein with human IgG1 Fc tag at the C-terminus (Acro biosystems, Cat#CT4-H5255) (human, UniProt P16410 37-162); test: cell-based or functional assay
T1 sequence (looked up): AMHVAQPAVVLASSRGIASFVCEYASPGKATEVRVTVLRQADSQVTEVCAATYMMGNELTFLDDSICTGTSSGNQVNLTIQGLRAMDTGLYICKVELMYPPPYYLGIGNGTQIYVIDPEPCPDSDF

[2] = biological target: T1, recombinant human CTLA4 protein with …; test: cell-based or functional assay; remark: listed apart in the source
[3] = biological target: T2, recombinant human CTLA4-his protein (Acro biosystems, Cat#CT4-H5229) (human, UniProt P16410 37-162); test: SPR, Biacore T200; antibody captured, CTLA4-his as analyte
T2 construct: bought recombinant protein; not shown: his tag
T2 sequence (looked up): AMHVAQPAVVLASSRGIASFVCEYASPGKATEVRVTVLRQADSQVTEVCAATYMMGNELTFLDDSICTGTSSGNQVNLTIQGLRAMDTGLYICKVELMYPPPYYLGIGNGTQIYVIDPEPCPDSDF
Protocol: (§1) Un-reacted moieties on the biosensor surface were blocked with ethanolamine. […] The antigen-antibody association kinetics was followed for 2 minutes and the dissociation kinetics was followed for 10 minutes. The association and dissociation curves were fit to a 1:1 Langmuir binding model using BIAcore evaluation software.

[4] = biological target: T3, cynomolgus monkey CTLA4-his protein (Acro biosystems, Cat#CT4-C5227) (cynomolgus monkey, UniProt G7PL88 36-161); test: as above
T3 construct: bought recombinant protein; also called Cynomolgus CTLA4-his; not shown: his tag
T3 sequence: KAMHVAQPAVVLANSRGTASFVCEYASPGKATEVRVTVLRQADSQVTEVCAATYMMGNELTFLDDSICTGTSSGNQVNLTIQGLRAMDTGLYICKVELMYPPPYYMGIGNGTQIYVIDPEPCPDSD
Protocol: as §1

[5] = biological target: T1, recombinant human CTLA4 protein with …; test: capture ELISA (plate coated with goat anti-human IgG F(ab')2 per paragraph 181), biotin human CTLA4-Fc, streptavidin-HRP, OD(450-630)
Protocol: Plates were washed once with wash buffer (PBS+0.05% v/v Tween-20, PBST) and then blocked with 200 µl/well blocking buffer (PBST with 5% w/v non-fatty milk) for 2 hours at 37° C. […] After a final wash, plates were incubated with 100 µl/well substrate TMB (Innoreagents, Cat#TMB-S-002). The reaction was stopped in 15 minutes at room temperature with 50 µl/well 1M H₂SO₄, and the absorbance of the each well was read on a microplate reader using dual wavelength mode with 450 nm for TMB and 630 nm as the reference wavelength, then the OD (450-630) values were plotted against antibody concentration. Data was analyzed using Graphpad Prism software and EC₅₀ values were reported.
(§2) In the capture ELISA assay, the 96-well micro plates were coated with 2 µg/ml goat anti-human IgG (AffiniPure Goat Anti-Human IgG, F(ab′)₂ fragment specific, Jackson Immunoresearch, Cat#109-005-097) instead of the goat anti-mouse IgG F(ab′)₂ fragment, 100 µl/well.

[6] = biological target: T1, recombinant human CTLA4 protein with …; test: capture ELISA: antibody captured on anti-mouse IgG F(ab')2 coated plate, biotin human CTLA4-Fc 26 ng/ml, streptavidin-HRP, OD(450-630)
[7] = biological target: T1, recombinant human CTLA4 protein with …; test: cell based blocking FACS: antibody pre-mixed with human CTLA4-Fc, added to Daudi cells; blocked ligands: cell surface CD80/CD86
[8] = biological target: T1, recombinant human CTLA4 protein with …; test: as above; remark: listed apart in the source
Protocol: (§3) Daudi cells were harvested from cell culture flasks at the log phase, washed twice and re-suspended in PBS containing 2% v/v Fetal Bovine Serum (FACS buffer). […] Cells were washed twice and re-suspended in FACS buffer. Fluorescence was measured using a Becton Dickinson FACS Canto II-HTS equipment. Data was analyzed using Graphpad Prism software and IC₅₀ values were reported.

[9] = biological target: T1, recombinant human CTLA4 protein with …; test: competitive ELISA: antibody pre-mixed with biotin human CTLA4-Fc, added to plate coated with the benchmark; competitor: coated Yervoy
Protocol: Plates were washed once with wash buffer, blocked with 200 µl PBST with 5% w/v non-fatty milk, incubated for 2 hours at 37° C., and washed 4 times.
After incubation at 37° C. for 40 minutes, plates were washed 4 times again using wash buffer. Then the plates were added and incubated with 100 µl/well streptavidin conjugated HRP (1:10000 dilution in PBST, Jackson Immuno Research, Cat#016-030-084, 100 µl/well) for 40 minutes at 37° C. Plates were finally washed using wash buffer. Finally, TMB was added and the reaction was stopped using 1M H₂SO₄, and the absorbance of the each well was read on a microplate reader using dual wavelength mode with 450 nm for TMB and 630 nm as the reference wavelength, then the OD (450-630) values were plotted against antibody concentration. Data was analyzed using Graphpad Prism software and IC₅₀ values were reported.
as §2

[10] = biological target: T1, recombinant human CTLA4 protein with …; test: cell based blocking FACS: antibody pre-mixed with human CTLA4-Fc (1 ug/mL), added to Daudi cells; blocked ligands: cell surface CD80/CD86
Protocol: as §3

[11] = biological target: T1, recombinant human CTLA4 protein with …; test: competitive ELISA: antibody pre-mixed with biotin human CTLA4-Fc (65 ng/ml), added to plate coated with the benchmark; competitor: coated Yervoy
[12] = biological target: T1, recombinant human CTLA4 protein with …; test: capture ELISA: antibody captured on coated plate (anti-human IgG Fc for the chimeric antibodies), biotin human CTLA4-Fc, streptavidin-HRP, OD(450-630)
[13] = biological target: T2, recombinant human CTLA4-his protein …; test: BLI, Octet RED96; antibody on AHC sensor, CTLA4-his as analyte
Protocol: (§4) Briefly, AHC biosensors (anti-human IgG Fc capture, from ForteBio) were presoaked with 10 mM glycine (pH 1.5) for 3 seconds, and then dipped in a well with running buffer (0.5% w/v BSA in PBST) for 3 seconds, the soaking and dipping steps were repeated for three times. […] A new baseline was run for 180 seconds in another well with running buffer. […] Finally, sensors were presoaked with 10 mM glycine (pH 1.5) for 3 seconds, and then were dipped in a well with running buffer for 3 seconds, the soaking and dipping steps repeated for three times. The association and dissociation curves were fit to a 1:1 Langmuir binding model using ForteBio Data Analysis 8.1.

[14] = biological target: T2, recombinant human CTLA4-his protein …; test: BLI, Octet; antibody at 5 ug/ml on AHC sensor, CTLA4-his as analyte
Protocol: as §4

[15] = biological target: T2, recombinant human CTLA4-his protein …; test: SPR, Biacore; antibody captured on anti-human IgG CM5 chip, CTLA4-his as analyte
Protocol: as §1, with “software. […]” for “software.”

[16] = biological target: T3, cynomolgus monkey CTLA4-his protein …; test: as above
Protocol: as §1, with “software. […]” for “software.”

EC50 of IL-2 release (GS-J1 T cells + GS-C1/CD80 cells + human CTLA4-Fc, IL-2 HTRF) [1]: 37.5 nM
EC50 of IL-2 release (GS-J1 T cells + GS-C1/CD80 cells + human CTLA4-Fc, IL-2 HTRF) [2]: 42.3 nM
Kd [3]: 1.89 nM
koff [3]: 0.000276 s⁻¹
kon [3]: 146000 M⁻¹ s⁻¹
Kd [4]: 4.67 nM
koff [4]: 0.00047 s⁻¹
kon [4]: 101000 M⁻¹ s⁻¹
EC50 [5]: 0.778 nM
EC50 [6]: 0.103 nM
IC50 [7]: 9.67 nM
IC50 [8]: 5.82 nM
IC50 [9]: 5.75 nM
IC50 [10]: 4.77 nM
IC50 [11]: 0.646 nM
EC50 [12]: 0.632 nM
B1: mouse anti-CTLA4 monoclonal antibody D1D5 (antibody, V domains shown)
VH: EVKLVESGGGLVKPGGSLKLSCAASGFTFSDYGMAWVRQAPGKGPEWVAFISNLAYSVYYADTETGRFTISREDAKNTLYLEMSSLRSEDTAMYYCARSGLPYAMDYWGQGTSVTVSS
VL: DIQMTQTTSSLSASLGDRVTISCRASQDISNYLNWYQQKPDGTVKLLIYYISRLHSGVPSRFSGSGSGTDFSLTISNLEQEDIATYFCQQGRMLPWTFGGGTRLEIK
notes: mouse mAb purified from hybridoma supernatant

EC50 of IL-2 release (GS-J1 T cells + GS-C1/CD80 cells + human CTLA4-Fc, IL-2 HTRF) [2]: 82.1 nM
Kd [13]: 5.32 nM
koff [13]: 0.00166 s⁻¹
kon [13]: 312000 M⁻¹ s⁻¹
Kd [14]: < 0.001 nM
koff [14]: < 1e-07 s⁻¹
kon [14]: 132000 M⁻¹ s⁻¹
Kd [15]: 1.93 nM
koff [15]: 0.000404 s⁻¹
kon [15]: 209000 M⁻¹ s⁻¹
Kd [16]: 0.968 nM
koff [16]: 0.000505 s⁻¹
kon [16]: 521000 M⁻¹ s⁻¹
EC50 [5]: 0.575 nM
IC50 [7]: 12.6 nM
IC50 [8]: 6 nM
IC50 [9]: 0.785 nM
EC50 [12]: 0.992 nM
B2: chimeric D1D5 anti-CTLA4 antibody (antibody, human IgG4 S228P, kappa, V domains shown)
VH: EVKLVESGGGLVKPGGSLKLSCAASGFTFSDYGMAWVRQAPGKGPEWVAFISNLAYSVYYADTETGRFTISREDAKNTLYLEMSSLRSEDTAMYYCARSGLPYAMDYWGQGTSVTVSS
VL: DIQMTQTTSSLSASLGDRVTISCRASQDISNYLNWYQQKPDGTVKLLIYYISRLHSGVPSRFSGSGSGTDFSLTISNLEQEDIATYFCQQGRMLPWTFGGGTRLEIKR
notes: mouse variable domains on human IgG4/kappa, made in 293F cells
